Assay results reported in the supplement of paper PMC11316812.
± gives the standard deviation of the averaged measurements.

Legend:
[1] = test system: hTERT-HMEC; assay: percentage of EdU-negative (G0-arrested) nuclei per well, 72 h; higher = more G0 arrest; settings: reference: sequence is the full UniProt precursor, the tested protein was the secreted form or ectodomain
[2] = test system: MCF7; assay: as above; settings: reference: sequence is the full UniProt precursor, the tested protein was the secreted form or ectodomain
[3] = protein concentration 0.0175 µM
[4] = protein concentration 0.0125 µM
[5] = protein concentration 0.0225 µM
[6] = protein concentration 0.01125 µM
[7] = protein concentration 0.1125 µM
[8] = protein concentration 0.0165825 µM
[9] = protein concentration 0.165825 µM
[10] = protein concentration 0.03125 µM
[11] = protein concentration 0.3125 µM
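Further: secreted proteins added to cultured cells, EdU pulse at the end, nuclei found by Hoechst imaging, EdU status from nuclear versus surrounding ring intensity ratio, PBS as neutral control.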

“MGPPSSSGFYVSRAVALLLAGLVAALLLALAVLAALYGHCERVPPSELPGLRDLEAESSPPLRQKPTPTPKPSSARELAVTTTPSNWRPPGPWDQLRLPPWLVPLHYDLELWPQLRPDELPAGSLPFTGRVNITVRCTVATSRLLLHSLFQDCERAEVRGPLSPGTGNATVGRVPVDDVWFALDTEYMVLELSEPLKPGSSYELQLSFSGLVKEDLREGLFLNVYTDQGERRALLASQLEPTFARYVFPCFDEPALKATFNITMIHHPSYVALSNMPKLGQSEKEDVNGSKWTVTTFSTTPHMPTYLVAFVICDYDHVNRTERGKEIRIWARKDAIANGSADFALNITGPIFSFLEDLFNISYSLPKTDIIALPSFDNHAMENWGLMIFDESGLLLEPKDQLTEKKTLISYVVSHEIGHQWFGNLVTMNWWNNIWLNEGFASYFEFEVINYFNPKLPRNEIFFSNILHNILREDHALVTRAVAMKVENFKTSEIQELFDIFTYSKGASMARMLSCFLNEHLFVSALKSYLKTFSYSNAEQDDLWRHFQMAIDDQSTVILPATIKNIMDSWTHQSGFPVITLNVSTGVMKQEPFYLENIKNRTLLTSNDTWIVPILWIKNGTTQPLVWLDQSSKVFPEMQVSDSDHDWVILNLNMTGYYRVNYDKLGWKKLNQQLEKDPKAIPVIHRLQLIDDAFSLSKNNYIEIETALELTKYLAEEDEIIVWHTVLVNLVTRDLVSEVNIYDIYSLLKRYLLKRLNLIWNIYSTIIRENVLALQDDYLALISLEKLFVTACWLGLEDCLQLSKELFAKWVDHPENEIPYPIKDVVLCYGIALGSDKEWDILLNTYTNTTNKEEKIQLAYAMSCSKDPWILNRYMEYAISTSPFTSNETNIIEVVASSEVGRYVAKDFLVNNWQAVSKRYGTQSLINLIYTIGRTVTTDLQIVELQQFFSNMLEEHQRIRVHANLQTIKNENLKNKKLSARIAAWLRRNT [Q6Q4G3]” was tested. Which “percentage of EdU-negative” value [1, 3] did it give?
Its value is 5.44 ± 0.3%.

What about the “percentage of EdU-negative” value ([1]; protein concentration 0.175 µM) of the same sequence?
The value was 16.6 ± 0.49%.

What about the “percentage of EdU-negative” value [2, 3] of the same sequence?
The value was 22.3 ± 0.34%.

What about the “percentage of EdU-negative” value ([2]; protein concentration 0.175 µM) of the same sequence?
The value was 27.4 ± 4.3%.

What does the source list for “MPRSCCSRSGALLLALLLQASMEVRGWCLESSQCQDLTTESNLLECIRACKPDLSAETPMFPGNGDEQPLTENPRKYVMGHFRWDRFGRRNSSSSGSSGAGQKREDVSAGEDCGPLPEGGPEPRSDGAKPGPREGKRSYSMEHFRWGKPVGKKRRPVKVYPNGAEDESAEAFPLEFKRELTGQRLREGDGPDGPADDGAGAQADLEHSLLVAAEKKDEGPYRMEHFRWGSPPKDKRYGGFMTSEKSQTPLVTLFKNAIIKNAYKKGE”?
percentage of EdU-negative [1, 4]: 4.65 ± 0.64%; percentage of EdU-negative ([1]; protein concentration 0.125 µM): 8.66 ± 0.81%; percentage of EdU-negative [2, 4]: 24.3 ± 6.1%; percentage of EdU-negative ([2]; protein concentration 0.125 µM): 24.787 ± 0.0019%

For “MAARRSQRRRGRRGEPGTALLVPLALGLGLALACLGLLLAVVSLGSRASLSAQEPAQEELVAEEDQDPSELNPQTEESQDPAPFLNRLVRPRRSAPKGRKTRARRAIAAHYEVHPRPGQDGAQAGVDGTVSGWEEARINSSSPLRYNRQIGEFIVTRAGLYYLYCQVHFDEGKAVYLKLDLLVDGVLALRCLEEFSATAASSLGPQLRLCQVSGLLALRPGSSLRIRTLPWAHLKAAPFLTYFGLFQVH”, which “percentage of EdU-negative” value [1, 5] is on record?
The value was 12.2 ± 2.6%.

And the “percentage of EdU-negative” value ([1]; protein concentration 0.225 µM)?
Its value is 13.4 ± 1.1%.

What about the “percentage of EdU-negative” value [2, 5] of the same sequence?
Its value is 24.6 ± 1.4%.

What about the “percentage of EdU-negative” value ([2]; protein concentration 0.225 µM) of the same sequence?
Its value is 24.3 ± 3.4%.

How did the “percentage of EdU-negative” value [1, 5] turn out when “MAFLPSWVCVLVGSFSASLAGTSNLSETEPPLWKESPGQLSDYRVENSMYIINPWVYLERMGMYKIILNQTARYFAKFAPDNEQNILWGLPLQYGWQYRTGRLADPTRRTNCGYESGDHMCISVDSWWADLNYFLSSLPFLAAVDSGVMGISSDQVRLLPPPKNERKFCYDVSSCRSSFPETMNKWNTFYQYLQSPFSKFDDLLKYLWAAHTSTLADNIKSFEDRYDYYSKAEAHFERSWVLAVDHLAAVLFPTTLIRSYKFQKGMPPRILLNTDVAPFISDFTAFQNVVLVLLNMLDNVDKSIGYLCTEKSNVYRDHSESSSRSYGNNS [Q6P5S2]” was run?
Its value is 4.92 ± 0.16%.

What about the “percentage of EdU-negative” value ([1]; protein concentration 0.225 µM) of the same sequence?
Its value is 5.82 ± 0.65%.

What about the “percentage of EdU-negative” value [2, 5] of the same sequence?
The value was 25.7 ± 0.86%.

What about the “percentage of EdU-negative” value ([2]; protein concentration 0.225 µM) of the same sequence?
Its value is 26.6 ± 0.54%.

“MGSPRSALSCLLLHLLVLCLQAQEGPGRGPALGRELASLFRAGREPQGVSQQHVREQSLVTDQLSRRLIRTYQLYSRTSGKHVQVLANKRINAMAEDGDPFAKLIVETDTFGSRVRVRGAETGLYICMNKKGKLIAKSNGKGKDCVFTEIVLENNYTALQNAKYEGWYMAFTRKGRPRKGSKTRQHQREVHFMKRLPRGHHTTEQSLRFEFLNYPPFTRSLRGSQRTWAPEPR” was tested. Which “percentage of EdU-negative” value [1, 6] did it give?
The value was 5.64 ± 0.65%.

And the “percentage of EdU-negative” value [1, 7]?
Its value is 11 ± 1.7%.

And the “percentage of EdU-negative” value [2, 6]?
The value was 25.1 ± 1.4%.

What about the “percentage of EdU-negative” value [2, 7] of the same sequence?
The value was 25.58 ± 0.037%.

Which “percentage of EdU-negative” value [1, 5] does the source give for “MVPEEEPQDREKGLWWFQLKVWSMAVVSILLLSVCFTVSSVVPHNFMYSKTVKRLSKLREYQQYHPSLTCVMEGKDIEDWSCCPTPWTSFQSSCYFISTGMQSWTKSQKNCSVMGADLVVINTREEQDFIIQNLKRNSSYFLGLSDPGGRRHWQWVDQTPYNENVTFWHSGEPNNLDERCAIINFRSSEEWGWNDIHCHVPQKSICKMKKIYI [Q8WTT0]” here?
Its value is 4.78 ± 0.84%.

What about the “percentage of EdU-negative” value ([1]; protein concentration 0.225 µM) of the same sequence?
The value was 4.64 ± 1%.

What about the “percentage of EdU-negative” value [2, 5] of the same sequence?
Its value is 27.712 ± 0.0085%.

What about the “percentage of EdU-negative” value ([2]; protein concentration 0.225 µM) of the same sequence?
Its value is 26.5 ± 0.9%.

Which “percentage of EdU-negative” value [1, 8] does the source give for “MKGLAAALLVLVCTMALCSCAQVGTNKELCCLVYTSWQIPQKFIVDYSETSPQCPKPGVILLTKRGRQICADPNKKWVQKYISDLKLNA” here?
Its value is 5.34 ± 1.1%.

And the “percentage of EdU-negative” value [1, 9]?
Its value is 5.89 ± 1.1%.

And the “percentage of EdU-negative” value [2, 8]?
The value was 26.2 ± 1.5%.

What about the “percentage of EdU-negative” value [2, 9] of the same sequence?
The value was 24.6 ± 2.4%.

How did the “percentage of EdU-negative” value [1, 10] turn out when “MRPTLLWSLLLLLGVFAAAAAAPPDPLSQLPAPQHPKIRLYNAEQVLSWEPVALSNSTRPVVYQVQFKYTDSKWFTADIMSIGVNCTQITATECDFTAASPSAGFPMDFNVTLRLRAELGALHSAWVTMPWFQHYRNVTVGPPENIEVTPGEGSLIIRFSSPFDIADTSTAFFCYYVHYWEKGGIQQVKGPFRSNSISLDNLKPSRVYCLQVQAQLLWNKSNIFRVGHLSNISCYETMADASTELQQVILISVGTFSLLSVLAGACFFLVLKYRGLIKYWFHTPPSIPLQIEEYLKDPTQPILEALDKDSSPKDDVWDSVSIISFPEKEQEDVLQTL” was run?
The value was 5.59 ± 1.2%.

And the “percentage of EdU-negative” value [1, 11]?
Its value is 6.09 ± 0.44%.

What about the “percentage of EdU-negative” value [2, 10] of the same sequence?
Its value is 27.1 ± 3%.

And the “percentage of EdU-negative” value [2, 11]?
The value was 24.6 ± 0.62%.
